Assays:
IFN-gamma = molecular target: T1, IFN-gamma (UniProt P01579); experiment: SPR; conditions: Ds at n; for binding signal: 150 nM IFN-gamma, 930 s
T1 sequence: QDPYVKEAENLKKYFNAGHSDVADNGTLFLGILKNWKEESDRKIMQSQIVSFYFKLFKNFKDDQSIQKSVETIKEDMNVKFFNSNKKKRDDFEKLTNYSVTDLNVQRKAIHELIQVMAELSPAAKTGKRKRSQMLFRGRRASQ

[1] = test system: T2, VEGF-165 (Homo sapiens), P15692-4; experiment: SPR; conditions: for binding signal: 10 nM VEGF-165, 930 s
T2 sequence: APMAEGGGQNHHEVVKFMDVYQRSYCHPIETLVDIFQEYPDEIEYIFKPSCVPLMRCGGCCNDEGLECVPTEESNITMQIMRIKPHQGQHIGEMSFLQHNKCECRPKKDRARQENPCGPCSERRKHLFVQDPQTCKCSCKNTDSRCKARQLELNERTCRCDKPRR

[2] = Ds at n, PBS + 0.005% NP-40, 25 C

Sequence: TCCACTCGGGTCATTTANTAATGTAGGTNTGGGCTAGGCNGCTAGTGGA [IFd1-3Ds-49]
- Kd (IFN-gamma; 205 mM NaCl, 25 C): 1.6 nM

Sequence: TCGGGTCATTTAATAATGTAGGTNTGGGCTAGGCNGCTAGTGGAT [IFd1-A2Ds-45]
- Kd (IFN-gamma; 205 mM NaCl, 25 C): 20 nM

Sequence: TCGGGTCGTTTANTAATGTAGGTNTGGGCTAGGCNGCTAGTGGAT [IF07bDs-45]
- Kd (IFN-gamma; 205 mM NaCl, 25 C): 20 nM

Sequence: ATCAGTCCACTCCTTCTGTCATNGGGCAGGCGCNTTTGGTGTAGNGTTTATCTTGG [IF07aDs-57]
- binding signal (IFN-gamma): 0.07 bound ratio

Sequence: GTAAACTGCGTCCGAAGGGGCATGCAGTGANCCCGAATGGGTCCG [VGd1-ADs-45]
- Kd ([1]; Ds at n, 25 C): 0.037 nM

Sequence: ATCAGTCCACTCGGGTCGTTTANTAATGTAGGTNTGGGCTAGGCNGCTAGTGGATG [IF07bDs-57 (Table 14)]
- Kd (IFN-gamma; 205 mM NaCl phosphate pH 7.4, 25 C): 0.8 nM

Sequence: TGTCTAAGTANGGTGGGATTGGCGGGGNTGTCGGA [Ds-09-1-DsADs]
- Kd ([1]; Ds at n, retention 33%): > 100 nM

Sequence: CGGTAAACTGCGTCCGAAGGGGCNTGCAGTGANCCCGAATGGGTCCG [VGd1-2Ds-47]
- Kd [1, 2]: 0.0046 nM

Sequence: TCAGTCCACGGTAAACTGAGTCCGAAGGGGCNTGCAGTGANCCCGAATGGGTCCGG [VG20Ds-57]
- Kd ([1]; Ds at n, printed as uM, evidently pM, 25 C): 0.0059 nM

Sequence: CCGGTAAACTGCGTCCGAAGGGGCNTGCAGTGANCCCGAATGGGTCCGG [VGd1-2Ds-49]
- Kd [1, 2]: 0.0046 nM

Sequence: TGTCTAAGTANTGTGGGNTTGGAGGGGNTGTCGGA [Ds-09-1-mDsDsDs]
- Kd ([1]; Ds at n, retention 90%): 50 nM

Sequence: ATCAGTCCACGAGATGGATGGTAGTGGCCGNACGGGGGGGNTGGAGANGCTGGCTG [VG08Ds-57]
- binding signal ([1]; Ds at n): 0.21 bound ratio

Sequence: ATCAGTCCACATCGAGCGTGAGGTCCGAAAGGCGACTCTTNTAACATCAAGTAATG [VG02aDs-57]
- binding signal ([1]; Ds at n): 0.15 bound ratio

Sequence: GTCCGAAGGGGCNTGCAGTGANCCCGAATGGGTCCG [VGd1-2Ds-36]
- Kd ([1]; Ds at n, Bound 0.02, 25 C): 4.6 nM

Sequence: TCGGGTCATTTANTAATGTAGGTATGGGCTAGGCNGCTAGTGGAT [IFd1-DsADs-45]
- Kd (IFN-gamma; 205 mM NaCl, 25 C): 127 nM

Sequence: TCGGGTCATTTANTAATGTAGGTNTGGGCTAGGCNGCTAGTGGAT [IFd1-3Ds-45]
- Kd (IFN-gamma; 205 mM NaCl, 25 C): 15 nM

Sequence: TGTCTAAGTAAGGTGGGNTTGGCGGGGNTGTCGGA [Ds-09-1-ADsDs]
- Kd ([1]; Ds at n, PBS + 0.05% NP-40, 25 C, retention 94%): 1 nM

Sequence: TGTCTAAGTAAGGTGGGATTGGCGGGGATGTCGGA [Ds-09-1-AAA]
- Kd ([1]; retention 28%): > 100 nM

Sequence: ATCAGTCCACATACGCGGGGGTGTTGAAGGGTTAGTCGGANGTAGTGTGTACAGAG [VG02bDs-57]
- binding signal ([1]; Ds at n): 0.39 bound ratio

Sequence: ATCAGTCCACAAAGTGCTGGGTCCGNATGGCGGGGGGTTAGGCCTCTTTGGGGCGG [VG01Ds-57]
- binding signal ([1]; Ds at n): 0.2 bound ratio

Sequence: ATCAGTCCACTCGGGTCGTTTANTAATGTAGGTNTGGGCTAGGCNGCTAGTGGATG [IF07bDs-57]
- Kd (IFN-gamma; Bound 0.72 (Table 13), 25 C): 2 nM

Sequence: TGTCTAAGTANGGTGGGNTTGGCGGGGATGTCGGA [Ds-09-1-DsDsA]
- Kd ([1]; Ds at n, retention 32%): > 100 nM

Sequence: TCGGGTCATTTANTAATGTAGGTNTGGGCTAGGCAGCTAGTGGAT [IFd1-DsDsA-45]
- Kd (IFN-gamma; Bound 0.36): > 200 nM

Sequence: TGACCTCGGGTCATTTANTAATGTAGGTNTGGGCTAGGCNGCTAGGTCA [IFd1-3Ds-49b]
- Kd (IFN-gamma; 205 mM NaCl, 25 C): 1.1 nM

Sequence: TCGGGTCATTTAATAATGTAGGTATGGGCTAGGCNGCTAGTGGAT [IFd1-AADs-45]
- Kd (IFN-gamma; 205 mM NaCl, 25 C): 113 nM

Sequence: ACTGCGTCCGAAGGGGCNTGCAGTGANCCCGAATGGGTCCG [VGd1-2Ds-41]
- Kd ([1]; Ds at n, 25 C): 0.069 nM

Sequence: ATCAGTCCACTAATCAGGAAGANGATAGGGTTTGTCTTNTGTTGCCACGCTGGGAG [IF04Ds-57]
- binding signal (IFN-gamma): 0.1 bound ratio

Sequence: ATCAGTCCACCTATGTGGGTTGGNTGGGGTGTATGTTNGTAGGGCTANGGAGGTGG [IF11Ds-57]
- binding signal (IFN-gamma): 0.66 bound ratio

Sequence: CGGTAAACTGCGTCCGAAGGGGCATGCAGTGAACCCGAATGGGTCCG [VGd1-2A-47]
- Kd ([1]; 25 C): 0.2 nM

Sequence: ATCAGTCCACATTGGACTTAGCCCAGCAAGACAATCTACGNTATGCCAGAAGTTGG [IF02Ds-57]
- binding signal (IFN-gamma): 0.03 bound ratio

Sequence: TTTTTGTAAACTGCGTCCGAAGGGGCNTGCAGTGANCCCGAATGGGTCCG [VGd1-2Ds-50]
- Kd ([1]; Ds at n, 25 C): 0.017 nM

Sequence: GTAAACTGCGTCCGAAGGGGCNTGCAGTGANCCCGAATGGGTCCG [VGd1-2Ds-45]
- Kd ([1]; Ds at n, 25 C): 0.016 nM

Sequence: GTAAACTGAGTCCGAAGGGGCNTGCAGTGANCCCGAATGGGTCCG [VG20Ds-45]
- Kd ([1]; Ds at n, 25 C): 0.022 nM

Sequence: GTAAACTGCGTCCGAAGGGGCNTGCAGTGANCCCGA [VGd1-2Ds-36b]
- Kd ([1]; Ds at n, 25 C): 0.017 nM

Sequence: GTAAACTGCGTCCGAAGGGGCNTGCAGTGANCCCGAATGGG [VGd1-2Ds-41b]
- Kd ([1]; Ds at n, 25 C): 0.06 nM

Sequence: GTAAACTGCGTCCGAAGGGGCNTGCAGTGAACCCGAATGGGTCCG [VGd1-DsA-45]
- Kd ([1]; Ds at n, 25 C): 0.094 nM

Sequence: TGTCTAAGTANGGTGGGNTTGGCGGGGNTGTCGGA [Ds-09-1-DsDsDs]
- Kd ([1]; Ds at n, PBS + 0.05% NP-40, 25 C, retention 92%): 4 nM
